From patent US20180305695, “DNA APTAMER THAT BINDS TO vWF” (TAGCYX BIOTECHNOLOGIES, published 2018)

Biological target: von Willebrand factor A1 domain (Homo sapiens, UniProt P04275 SEQ:1277-1453)
Assay: EMSA; positive control, gel 4 C; substantially no binding with gel at 25-37 C
Conditions: tags: U-Protein Express V003; label: biotin (SPR)
Method: The binding ability of the synthesized DNA aptamers was analyzed via gel shift assay. Specifically, the DNA aptamers (100 nM) and the vWF A1 domain (100 nM, V003, U-Protein) were suspended in 20 μl of a reaction solution (1×PBS, 0.005% Nonidet P-40), and incubated at 37° C. for 30 minutes. Thereafter, 25% glycerol containing bromophenol blue was added to be a final concentration of glycerol to 5% therein, the resultant was subjected to 8% nondenaturing polyacrylamide gel electrophoresis at 4° C., and the DNA aptamers bound to the vWF A1 domain were separated from the free DNA aptamers. Thereafter, the DNA aptamers were stained with SYBR Gold (Thermo Fisher Scientific) diluted 1/20,000-fold with the 1×TBE solution and detected by a bioimage analyzer (LAS-4000, Fujifilm Corporation). The percentage of gel shifting was determined by dividing the amount of the complex by the amount of the free form and the complex, each deduced based on a band and expressing the determined value in a percentage figure.
Gel shift assay was carried out in the same manner as in Example 3, except that electrophoresis was carried out at 4° C. and 300 V, 25° C. and 40 W, and 37° C. and 40 W.
And the activity of vWF2-DsAA (o) and vWF2-AADs (p) were decreased in comparison with vWF2-DsDsDs (m).

Binder: GGCGTGCAGTGCCTTCGGCCGTGCGGTGCCTCCGTCACGCC (ssDNA) [ARC1172]
- binding result: binds
